Data from the supplement of paper PMC12764529.
± gives the half width of the 95% confidence interval.

What was measured:
[1] = folding stability dG unfold from trypsin proteolysis; higher = more stable
Method in brief: (§1)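 Designed mini-proteins (under 80 residues, no cysteine) in a PA-tagged cDNA display construct were digested with trypsin and chymotrypsin. Each protease was used at 11 concentrations (threefold dilutions) plus a no-protease condition, followed by sequencing. K50 was inferred by Bayesian fitting of sequencing counts, and unfolding free energy was derived against a sequence-predicted unfolded-state K50 and a shared folded-state K50, per protease or combined. Only designs with AlphaFold2 dimer inter-PAE above 15 were kept.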

[2] = folding stability dG unfold from chymotrypsin proteolysis; higher = more stable
Method in brief: as §1

[3] = folding stability dG unfold (combined trypsin and chymotrypsin); higher = more stable
Method in brief: as §1

| Sequence | folding stability dG unfold [1] | folding stability dG unfold [2] | folding stability dG unfold [3] |
| --- | --- | --- | --- |
| SAGMKPGEPITLVLPDGVVIPIKINPNGGVEIDDIEPPPDGTYNMDARHPNNGKEITLNIKLPPGFQILSAG [r5_394_TrROS] | 1.93 ± 0.13 kcal/mol | 0.239 ± 0.77 kcal/mol | 0.95 ± 0.43 kcal/mol |
| SAGMKPGETIKNAKIRITYPNGEKKELKIDDVVKIVEIDEEKGVITIELKNGEKIEIKLPPGAKIEIEPSAG [r5_762_TrROS_Hall] | 3.42 ± 0.26 kcal/mol | 1.83 ± 0.24 kcal/mol | 3.2 ± 0.58 kcal/mol |
| SAGMKPGETITIVLPDGTKIEIKILENGEVEIVKIEKKEDGTYKITIRVKVNGKEIEKEITLPPGAKILSAG [r5_394_TrROS_Hall] | 2.52 ± 0.11 kcal/mol | 2.04 ± 0.12 kcal/mol | 2.16 ± 0.27 kcal/mol |
| SAGMKPGEVLTVEDIPPGALLRNPKGESLGPVVEVEVRALEDSVEAVVTFPDGSKATVTFPADDIVLDPSAG [r5_850_TrMRF] | 1.05 ± 0.19 kcal/mol | 0.991 ± 0.21 kcal/mol | 0.987 ± 0.33 kcal/mol |
| SAGMKPIVELLKKEPNPKVILVEVFPTGGEAKIVVKDKVYVFPVKPGPGRRVLVVDPDGKILEVKPFPVSAG [r5_329_TrMRF] | 0.596 ± 0.15 kcal/mol | 0.709 ± 0.14 kcal/mol | 0.708 ± 0.12 kcal/mol |
| SAGMKPPKIEITIEVVEKDGELYVRVKIKLENGEEIEIVMSLDEVKELLKKLFPEITEIEVEEVRLPPKSAG [r5_25_TrROS_Hall] | 2.39 ± 0.12 kcal/mol | 4.09 ± 0.18 kcal/mol | 3.74 ± 0.5 kcal/mol |
| SAGMKPSPEGKTIITIDTSTGKVDVVFPDGKEFTLPFDSSSIEEIIKTIKEKLGYPPEVPFNIDEIEIASAG [r5_923_JUSTAS] | 2.41 ± 0.1 kcal/mol | 2.239 ± 0.019 kcal/mol | 2.31 ± 0.079 kcal/mol |
| SAGMKTLEKTGSAAKIEEAIAAGKSLEEVFETAGKDGGTSRTLTEPNRTLTFSGETSKPGVATLTTIPESAG [r5_343_JUSTAS] | -0.662 ± 0.55 kcal/mol | 0.279 ± 0.18 kcal/mol | -0.0165 ± 0.15 kcal/mol |
| SAGMKTVTVKVKISEEEREKLKELGFEIVEEKEDYLVIKVKVPPELSEEELEEAKKEGMTLEEALAKLSAGG [r19_115_TrROS_Hall] | 2.05 ± 0.12 kcal/mol | 1.71 ± 0.077 kcal/mol | 1.74 ± 0.27 kcal/mol |
| SAGMKVIEIDVPVSKIEEVKEELEAEAKEKGLNIKFEKLEKLPGNKYKMIVTVTDPTSNEKTIYNINILSAG [r5_41_JUSTAS] | 3.83 ± 0.27 kcal/mol | 4.08 ± 0.051 kcal/mol | 4.06 ± 0.12 kcal/mol |
| SAGMKVTTKTYTLTLTLPDGTRELKVTFTTPPDGYTATITDPNSSKVITLPFSSEEEARSAIEAIAARLSAG [r5_480_JUSTAS] | 2.48 ± 0.036 kcal/mol | 2.7 ± 0.06 kcal/mol | 2.62 ± 0.092 kcal/mol |
| SAGMLDVPDDAEITVLVSLEKVPLPGDSSERVLAGVVKLKVKTLPNGEQVIESAEIKIVSAEELKKAGLSAG [r5_340_TrMRF] | 1.34 ± 0.038 kcal/mol | 1.6 ± 0.099 kcal/mol | 1.43 ± 0.17 kcal/mol |
| SAGMLNIPVDTPEKLLEIVKKLPGPVVVRSTSGTTVTVASLEELKEIAERGVPVELLLPEELPAEERAASAG [r5_677_JUSTAS] | 0.0824 ± 0.051 kcal/mol | 0.872 ± 0.041 kcal/mol | 0.576 ± 0.067 kcal/mol |
| SAGMLSVEQLLEALKEGKEILIVAESPEERERAKRLLAEELGLSEEEIDALLKKAKIKVLPADDPELKKSAG [r5_368_TrROS_Hall] | 1.35 ± 0.086 kcal/mol | 2.72 ± 0.16 kcal/mol | 2.46 ± 0.2 kcal/mol |
| SAGMLTLRVVLPKEEAEARARALAEELRRRLGLPPGAKIEVKVVEYDEETGEVVVEVTIEVELPPGVEPSAG [r5_537_TrROS_Hall] | 4.27 ± 0.14 kcal/mol | 3.64 ± 0.051 kcal/mol | 3.98 ± 0.095 kcal/mol |
| SAGMMEIVEVKEVDGRLELKIKDKETGEEFTITVERKEDGELKVTIEMSDEAAERLRELFPEIDRLEIKSAG [r5_933_TrROS_Hall] | 2.19 ± 0.069 kcal/mol | 3.37 ± 0.19 kcal/mol | 2.93 ± 0.097 kcal/mol |
| SAGMMKIKITLENGEELTIEVSPEEKEKLKEGDIVEIRLEDGTVFKAEVVEVRPPGETVKIRITEAVPSAGG [r19_274_TrROS_Hall] | 1.67 ± 0.086 kcal/mol | 2.9 ± 0.035 kcal/mol | 2.54 ± 0.16 kcal/mol |
| SAGMMKVKIELTIVVETKEEAEKLAEELKKALEELGIKEVKVTVEYDKETKKVTVTVEIEIELEPELLSAGG [r19_92_TrROS_Hall] | 2.18 ± 0.21 kcal/mol | 2.17 ± 0.1 kcal/mol | 2.17 ± 0.23 kcal/mol |
| SAGMNLDNMKIKEIKLQVNPDGSVEVPFEFRFPNGKPMKVSMRVNNGMIEIYYPNGWPITIDIPPGAFSAGG [r19_84_TrROS] | 1.01 ± 0.15 kcal/mol | 1.48 ± 0.16 kcal/mol | 1.36 ± 0.15 kcal/mol |
| SAGMPDVPPVPRTFRLEIEIEVPAEDPELARELAEEIREEIRRLGAVRTEVEIDPEPGRVRVRVEFVEGSAG [r5_512_TrMRF] | 1.36 ± 0.018 kcal/mol | 1.56 ± 0.051 kcal/mol | 1.48 ± 0.043 kcal/mol |
| SAGMPITVDSEVDPETGTTTYTITMPRGPGEPVTVTIPVTYSDDSVTIEVTASPGVDAAEIKALIEKQSSAG [r5_478_JUSTAS] | 0.645 ± 0.053 kcal/mol | 0.34 ± 0.22 kcal/mol | 0.597 ± 0.11 kcal/mol |

| Sequence | folding stability dG unfold [1] | folding stability dG unfold [2] | folding stability dG unfold [3] |
| --- | --- | --- | --- |
| SAGMPKPVVTPVTLPVNGALITFTVDPEVPLATFTFDEPDVNAVAEEYAKERAAELEKAGIPTKIVPSSAGG [r19_354_JUSTAS] | 0.3 ± 0.041 kcal/mol | 0.743 ± 0.11 kcal/mol | 0.662 ± 0.16 kcal/mol |
| SAGMPLPAEELAERLAKEIEESTDYKVSIEEIKPEGEYVIIKVRVELPEKYKDKGYEEEEFVAIFPGDLSAG [r5_970_TrMRF] | 0.703 ± 0.073 kcal/mol | 0.806 ± 0.16 kcal/mol | 0.702 ± 0.25 kcal/mol |
| SAGMPLSVEEAIALLRKEIEAIPVPPSVTEIEFEITIPADGRPVKITVKVNEGKLEITVTVGDKPIKIGSAG [r14_199_JUSTAS] | 1.79 ± 0.14 kcal/mol | 2.3 ± 0.07 kcal/mol | 2.17 ± 0.11 kcal/mol |
| SAGMPLYRIRVHPDIPDRIEITEVDAEDLPPGAVLKIRFRETGETVEVPLSDLDELLALPGIEEVELVSAGG [r19_302_TrROS_Hall] | 0.305 ± 0.077 kcal/mol | 1.11 ± 0.13 kcal/mol | 0.841 ± 0.12 kcal/mol |
| SAGMPPTTVEVKVTVVKTPEGYEVVAEVVTPDRTETLTIPPHLGLEEAKARLEAVLAERGLTLVDWTLESAG [r5_305_JUSTAS] | 2.71 ± 0.047 kcal/mol | 2.65 ± 0.041 kcal/mol | 2.65 ± 0.057 kcal/mol |
| SAGMPSVTVTPVTVTVEGTAPPDLTEEELRADPTYTRTVEIDATVTLYPETGTVTVTLPGGVTVTLPSPSAG [r5_701_JUSTAS] | 0.432 ± 0.075 kcal/mol | 0.929 ± 0.031 kcal/mol | 0.79 ± 0.095 kcal/mol |
| SAGMPVITTTEELPGGLTVTTTTYPPGDTTTTVTSPEGNVTTTTTTTTPTPTPTTTTTTTTTTTPVPPASAG [r5_944_JUSTAS] | 1.56 ± 0.14 kcal/mol | 1.26 ± 0.099 kcal/mol | 1.44 ± 0.26 kcal/mol |
| SAGMSMSVSVTKDPNSNSITIKVTMPVEPDAVLDLPIKVEVPEKEYEMTVEVTLSPDGLASMTGTITLPSAG [r5_596_JUSTAS] | 2.74 ± 0.15 kcal/mol | 2.04 ± 0.056 kcal/mol | 2.41 ± 0.18 kcal/mol |
| SAGMTEVAKEIADTLAEQFPPGYKIDDIKVQPLPDNMFRVPITIKRRDPNGKPRGPRQIEIWIPPEQFSAGG [r19_28_TrROS] | 0.755 ± 0.053 kcal/mol | 0.21 ± 0.17 kcal/mol | 0.532 ± 0.11 kcal/mol |
| SAGMTFEVRYPLPPGQTHKEAREEVKDMVESIAREFMPEGWKIEPKDIDVDPDKGWIEYKVDIEIPPGMSAG [r5_146_TrROS] | 1.19 ± 0.12 kcal/mol | 1.94 ± 0.12 kcal/mol | 1.72 ± 0.18 kcal/mol |
| SAGMTIEIEIPASTSAEEAVERVEAIVEEVRKAGKKFELTIKTSDPALAAAVRAALEAAGVPVTVEVDSAGG [r19_268_JUSTAS] | 4.07 ± 0.12 kcal/mol | 2.48 ± 0.033 kcal/mol | 3.28 ± 0.066 kcal/mol |
| SAGMTIIKIEFPDGSKATVDPTNPSTMTITDPNGNTTVLNLTGVEEAKKQLIETLKKETGLPVKKVEVESAG [r5_119_JUSTAS] | 0.493 ± 0.045 kcal/mol | 1.38 ± 0.049 kcal/mol | 1.14 ± 0.088 kcal/mol |
| SAGMTIILVGPNAKEAVEKVAEELRKRDVGPPVTVLVLEPGGKPVLRARVERRPPDPDRFVVTVEPVESAGG [r19_85_TrMRF] | 0.689 ± 0.079 kcal/mol | 1.41 ± 0.11 kcal/mol | 1.27 ± 0.098 kcal/mol |
| SAGMTITIPAPPSLSPEEAVALAIERVKEEYPELLTPGSEVNIVVIREDPATGTSQTLTVTVPFPEGIFSAG [r5_916_JUSTAS] | 1.98 ± 0.045 kcal/mol | 1.57 ± 0.044 kcal/mol | 1.79 ± 0.086 kcal/mol |
| SAGMTITTTTPAEAAALAEELAKKNPVLNVTITVVDPETGTVTTIPFAVPAPLPRPYFDPETGEVTLEGSAG [r5_870_TrMRF] | 1.1 ± 0.033 kcal/mol | 0.193 ± 0.18 kcal/mol | 0.779 ± 0.11 kcal/mol |
| SAGMTITVKPGEKVKVTIKVEVFDENGKLIKKEEKEVEITVKEGDEITIKIKLDKPVKVKIEIKIEKKSAGG [r19_295_TrROS_Hall] | 2.67 ± 0.17 kcal/mol | 2.01 ± 0.15 kcal/mol | 2.29 ± 0.25 kcal/mol |
| SAGMTIVIGAPPELSLEEAVEKAIEAVEALFPDKLKPGSKIKVIVRVYDPETGSVDEVTVEIDVPPGALSAG [r5_916_TrMRF] | 3.35 ± 0.22 kcal/mol | 1.99 ± 0.11 kcal/mol | 2.65 ± 0.1 kcal/mol |
| SAGMTIVVEVPKKDITPEELAKKLEERFGLKVVEIKVEEVEEDKVRVTIRFEETGETLELTAEEIKELLSAG [r5_550_TrROS_Hall] | 4.6 ± 0.34 kcal/mol | 3.81 ± 0.17 kcal/mol | 4.19 ± 0.16 kcal/mol |
| SAGMTLKEEEFELPDGSRRIRLTFTSEEELAAKLKELGFEKFNPLSPSESVDVTIPPDGVLSESLPKEGSAG [r5_941_JUSTAS] | 0.651 ± 0.061 kcal/mol | 1.86 ± 0.066 kcal/mol | 1.42 ± 0.11 kcal/mol |
| SAGMTLTLELPVPPDMSEEEARALALARVREEVAALSPGGATVTPVAVSVDPETGTVSLEVEVEVPPLASAG [r5_146_JUSTAS] | 1.17 ± 0.032 kcal/mol | 1.45 ± 0.042 kcal/mol | 1.35 ± 0.037 kcal/mol |
| SAGMTLVAVNRETGEVNVIELDPEDPELVTVTYPNGEKETFPLAEIAERLGLPVSLLLNDYDIERIYGSSAG [r5_156_TrMRF] | 1.95 ± 0.086 kcal/mol | 1.38 ± 0.057 kcal/mol | 1.71 ± 0.084 kcal/mol |
